{
  "source": "patent US10167314",
  "about": "(NORTHWESTERN UNIVERSITY, dated 2019)",
  "target": "N-methyl-D-aspartate (NMDA) receptor (rat)",
  "assay": "cell-based or functional assay",
  "note": "Ends that are not written are not given here.",
  "data": [
    {"binder": "TPPT-NH2", "note": "[GLYX-13 (L-threonyl-L-prolyl-L-prolyl-L-threonine amide)]", "values": [
      {"measurement": "intrinsic activity relative to D-serine, pharmacologically isolated NMDA receptor current in the hippocampal slice assay", "value": 23, "unit": "%"}
    ]}
  ]
}
